To fix the notation:
T1: biot-AGE-BSA binding to His9-hMSR1 (Homo sapiens, UniProt P21757)
T1 construct: human MSR1 extracellular domain expressed with a N-terminal nonahistidine tag; His9 (nonahistidine) (N); purchased R&D Systems 2708-MS
T1 sequence (P21757 77-451 limits assumed): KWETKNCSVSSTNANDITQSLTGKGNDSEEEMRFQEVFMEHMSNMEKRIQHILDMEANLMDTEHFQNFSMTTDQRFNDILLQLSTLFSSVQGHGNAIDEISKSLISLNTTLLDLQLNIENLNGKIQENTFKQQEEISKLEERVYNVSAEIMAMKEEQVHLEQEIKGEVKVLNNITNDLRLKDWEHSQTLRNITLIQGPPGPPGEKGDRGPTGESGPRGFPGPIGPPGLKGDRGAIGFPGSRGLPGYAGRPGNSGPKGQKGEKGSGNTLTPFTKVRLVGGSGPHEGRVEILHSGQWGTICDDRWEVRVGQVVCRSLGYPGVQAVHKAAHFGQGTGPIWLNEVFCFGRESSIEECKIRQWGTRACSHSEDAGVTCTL

B1: H1H21227N-N297Q: "modified versions of 21227N (H1H21227N-N297Q and H1H21227N-N297D)"; anti-MSR1 antibody "with a N297Q single point mutation" (antibody, V domains shown)
VH: QVQLVQSGAEVKKPGASVKVSCKVSGYTLTELSIHWVRQVPGKGLEWMGGFDPEEGETIFAQEFRDRVTLTEDTSPDTAYMELSSLKSEDAAVYYCTTPRYCNNGICYDYWGQGTLVTVSS
VL: DIQMTQSPSSLSASVGDRVTITCRASQSISNYLNWYQQKPGKAPKLLIYTASSLQSGVPSRFSGSGSGTDFTLTISSLQTEDFATYYCQQSYSNFPITFGQGTRLEIKR
B2: H1H21231N: "anti-MSR1 antibodies ... (21227N, 21231N, 21234N) were produced with the original human Fcγ portion"; "H1H" = human IgG1 Fc (antibody, V domains shown)
VH: EVQLVESGGGLVQPGGSLRLSCAASGFTFSDHYMDWVRQAPGKGLEWVGRTRNKANSHTTEYTASVTGRFTISRDDSRNSLYLQMNSLKTEDTAVYYCVRAGIIGTLFDYWGQGTLVTVSS
VL: DIQMTQFPSSLSASVGDRVTITCRASQSISSFLNWFQQKPGKAPKFLIYAASSLQSGVPSRFSGSGSGTDFTLTISSLQPEDFATYYCQQSYSSPPITFGQGTRLEIKR
modifications: human IgG1 Fc
notes: "anti-MSR1 antibodies ; (21227N, 21231N, 21234N) were produced with the original human Fcγ portion"; "H1H" = human IgG1 Fc
B3: H1H21231N-N297Q: modified version of "21231N (H1H21231N-N297Q) anti-MSR1 antibodies" with "a N297Q single point mutation" (antibody, V domains shown)
VH: EVQLVESGGGLVQPGGSLRLSCAASGFTFSDHYMDWVRQAPGKGLEWVGRTRNKANSHTTEYTASVTGRFTISRDDSRNSLYLQMNSLKTEDTAVYYCVRAGIIGTLFDYWGQGTLVTVSS
VL: DIQMTQFPSSLSASVGDRVTITCRASQSISSFLNWFQQKPGKAPKFLIYAASSLQSGVPSRFSGSGSGTDFTLTISSLQPEDFATYYCQQSYSSPPITFGQGTRLEIKR
B4: H1H21227N: "anti-MSR1 antibodies ... (21227N, 21231N, 21234N) were produced with the original human Fcγ portion"; "H1H" = human IgG1 Fc (antibody, V domains shown)
VH: QVQLVQSGAEVKKPGASVKVSCKVSGYTLTELSIHWVRQVPGKGLEWMGGFDPEEGETIFAQEFRDRVTLTEDTSPDTAYMELSSLKSEDAAVYYCTTPRYCNNGICYDYWGQGTLVTVSS
VL: DIQMTQSPSSLSASVGDRVTITCRASQSISNYLNWYQQKPGKAPKLLIYTASSLQSGVPSRFSGSGSGTDFTLTISSLQTEDFATYYCQQSYSNFPITFGQGTRLEIKR
modifications: human IgG1 Fc
notes: as for B2
B5: H1H21227N-N297D: "The 21227N antibody was also produced as a third version with a N297D mutation" (antibody, V domains shown)
VH: QVQLVQSGAEVKKPGASVKVSCKVSGYTLTELSIHWVRQVPGKGLEWMGGFDPEEGETIFAQEFRDRVTLTEDTSPDTAYMELSSLKSEDAAVYYCTTPRYCNNGICYDYWGQGTLVTVSS
VL: DIQMTQSPSSLSASVGDRVTITCRASQSISNYLNWYQQKPGKAPKLLIYTASSLQSGVPSRFSGSGSGTDFTLTISSLQTEDFATYYCQQSYSNFPITFGQGTRLEIKR

The target in this experiment is T1, biot-AGE-BSA binding to His9-hMSR1. Nature of the experiment: Competition sandwich ELISA, blocking of biot-AGE-BSA binding. The following applies: 400 pM biot-AGE-BSA. The method, then: The ability of anti-MSR1 antibodies disclosed herein to block the binding of various ligands to human MSR1 was measured using three competition sandwich ELISA assays. The ligands used in the assays were: (1) acetylated LDL (Ac-LDL), (2) oxidized LDL (Ox-LDL), and (3) advanced glycation end-products of bovine serum albumin (AGE-BSA).
For the assay, recombinant monomeric human MSR1 protein comprised of a portion of the human MSR1 extracellular domain expressed with a N-terminal 9-Histidine tag (His9-hMSR1; R&D Systems, Cat #2708-MS) was coated at a concentration of 2 μg/mL in PBS on a 96-well microtiter plate overnight at 4° C. for use in competition ELISA assays with Ac-LDL, Ox-LDL, or biotinylated-AGE-BSA (“biot-AGE-BSA”). […] Anti-MSR1 antibodies or isotype control antibodies were serially diluted as appropriate for each tested ligand and added in duplicate for each serial dilution set to microtiter plates coated with His9-hMSR1. Buffer alone was also added to wells on each coat. After 1 hour incubation at room temperature, without wash, a final constant concentration of 50 pM Ac-LDL (Life Technologies/ThermoFisher Scientific, Cat #L-35354), 5 nM or 10 nM Ox-LDL (Alfa Aesar, Cat #J65591), or 400 pM biot-AGE-BSA (R&D Systems, Cat #BT4127) were added to plates with His9-hMSR1, and the plates were incubated for an additional 1 hour at room temperature. (Concentrations of Ac-LDL, Ox-LDL and biot-AGE-BSA for antibody inhibition assays were selected from the approximate midway point within the linear portion of individual binding curves of Ac-LDL, Ox-LDL or biot-AGE-BSA to plate-coated His9-hMSR1.) Wells were washed, and plate-bound Ac-LDL or Ox-LDL were detected with anti-LDL rabbit antibody (Alfa Aesar, Cat #J64398) in combination with anti-rabbit IgG (H+L) specific donkey polyclonal antibodies conjugated with horseradish peroxidase (HRP) (JacksonImmunoResearch, Cat #711-035-152) and biot-AGE-BSA was detected with a streptavidin-HRP (ThermoFisher Scientific, Cat #N200). Plates were developed using TMB substrate solution (BD Biosciences, Cat #51-2606KC & Cat #51-2607KC) according to manufacturer's recommendation and absorbance at 450 nm was measured on a Victor™ Multilabel Plate Reader (PerkinElmer™). This assay was conducted in four different assay runs.
Data analysis was performed using a sigmoidal dose-response model within Prism™ software (GraphPad). Percent blockade at maximum concentration of the antibody tested in each assay was calculated as an indicator of the ability of the antibodies to block the binding of Ac-LDL, Ox-LDL or biot-AGE-BSA to His9-hMSR1 on the plate relative to the baseline of the assay. In the calculation, binding signal of the same concentrations of Ac-LDL, Ox-LDL, or biot-AGE-BSA used for the assays in the absence of antibody was referenced as 100% binding or 0% blocking, while the baseline of the assay, defined as binding signal of the sample of buffer without MSR1 ligands or antibody, was referenced as 0% binding or 100% blocking. The maximum percent blockade at the highest concentration of antibody tested in each assay are reported for all antibodies. Negative percent blockade numbers reflected higher MSR1 ligands binding to plate coated His9-hMSR1 in the presence of antibodies.
As for B1, the “Anti-MSR1 antibody (300 nM) blocking of biot-AGE-BSA binding to His9-hMSR1 % Blocking” value (“Anti-MSR1 antibody … to His9-hMSR1 % Blocking” below) is reported as 96%.
As for B2, the “Anti-MSR1 antibody … to His9-hMSR1 % Blocking” value is given as −44%.
For the molecule B3, the “Anti-MSR1 antibody … to His9-hMSR1 % Blocking” value was −50%.
Take B4: the “Anti-MSR1 antibody … to His9-hMSR1 % Blocking” value came to 99%.
On to B5, for which the “Anti-MSR1 antibody … to His9-hMSR1 % Blocking” value was determined as 97%.

The record behind these values is patent US12497460B2, “Anti-MSR1 antibodies and methods of use thereof” (REGENERON PHARMACEUTICALS, INC., priority 2018, dated 2025).
